The sequences below were run on Escherichia coli TOP10 (assay: shrunken log2 fold change of peptide-encoding DNA abundance (4.5 h post-induction vs induction); higher = less antimicrobial activity (less host growth inhibition)). Details: time post-induction: 4.5 h; library: site-saturation at positions 5, 18, 19, 20.
In the case of RRIRARPPRLPRPRPRPRCCPRP, the “shrunken log2 fold change” value is reported as 0.582.
For RRIRFRPPRLPRPRPRPVHQPRP, the “shrunken log2 fold change” value was 0.124.
In the case of RRIRHRPPRLPRPRPRPDHMPRP, the “shrunken log2 fold change” value is reported as 0.00372.
In the case of RRIRQRPPRLPRPRPRPWINPRP, the “shrunken log2 fold change” value is reported as -0.408.
In the case of RRIRSRPPRLPRPRPRPGITPRP, the “shrunken log2 fold change” value is reported as -0.151.
RRIRGRPPRLPRPRPRPPTDPRP was tested, and the “shrunken log2 fold change” value was 1.24.
In the case of RRIRERPPRLPRPRPRPFFHPRP, the “shrunken log2 fold change” value is reported as -0.264.
RRIRSRPPRLPRPRPRPCEEPRP was tested, and the “shrunken log2 fold change” value was 0.00181.
RRIRFRPPRLPRPRPRPPAYPRP was tested, and the “shrunken log2 fold change” value was 0.127.
With RRIRSRPPRLPRPRPRPPLIPRP the “shrunken log2 fold change” value was 0.191.
With RRIRKRPPRLPRPRPRPWMMPRP the “shrunken log2 fold change” value was 0.211.
RRIRDRPPRLPRPRPRPPVWPRP was tested, and the “shrunken log2 fold change” value was 1.04.
With RRIRNRPPRLPRPRPRPCIWPRP the “shrunken log2 fold change” value was 0.131.
With RRIRCRPPRLPRPRPRPPKPPRP the “shrunken log2 fold change” value was 0.692.
With RRIRHRPPRLPRPRPRPSTQPRP the “shrunken log2 fold change” value was -0.0473.
RRIRTRPPRLPRPRPRPTLYPRP was tested, and the “shrunken log2 fold change” value was -0.102.
With RRIRFRPPRLPRPRPRPCMYPRP the “shrunken log2 fold change” value was -0.418.
For RRIRGRPPRLPRPRPRPAAYPRP, the “shrunken log2 fold change” value was 0.929.
With RRIRWRPPRLPRPRPRPFCKPRP the “shrunken log2 fold change” value was -0.13.
RRIRMRPPRLPRPRPRPHAIPRP was tested, and the “shrunken log2 fold change” value was 0.224.
With RRIRERPPRLPRPRPRPARVPRP the “shrunken log2 fold change” value was -0.505.
RRIRHRPPRLPRPRPRPQVIPRP was tested, and the “shrunken log2 fold change” value was -0.0106.
RRIRHRPPRLPRPRPRPVEYPRP was tested, and the “shrunken log2 fold change” value was -0.0122.
RRIRMRPPRLPRPRPRPNWKPRP was tested, and the “shrunken log2 fold change” value was -0.0351.
With RRIRFRPPRLPRPRPRPCCMPRP the “shrunken log2 fold change” value was -0.579.
In the case of RRIRSRPPRLPRPRPRPMVVPRP, the “shrunken log2 fold change” value is reported as 0.149.
In the case of RRIRERPPRLPRPRPRPYSHPRP, the “shrunken log2 fold change” value is reported as 0.0583.
With RRIRNRPPRLPRPRPRPCKKPRP the “shrunken log2 fold change” value was -0.0371.
In the case of RRIRTRPPRLPRPRPRPDQLPRP, the “shrunken log2 fold change” value is reported as -0.0381.
In the case of RRIRIRPPRLPRPRPRPIQMPRP, the “shrunken log2 fold change” value is reported as -0.203.
With RRIRKRPPRLPRPRPRPPWRPRP the “shrunken log2 fold change” value was 0.734.
RRIRSRPPRLPRPRPRPRLSPRP was tested, and the “shrunken log2 fold change” value was 0.00425.
RRIRYRPPRLPRPRPRPGRIPRP was tested, and the “shrunken log2 fold change” value was 0.0959.
For RRIRYRPPRLPRPRPRPSNGPRP, the “shrunken log2 fold change” value was 0.015.
For RRIRYRPPRLPRPRPRPLQFPRP, the “shrunken log2 fold change” value was -0.537.
RRIRIRPPRLPRPRPRPMKEPRP was tested, and the “shrunken log2 fold change” value was 0.116.
RRIRQRPPRLPRPRPRPCEMPRP was tested, and the “shrunken log2 fold change” value was -0.00121.
For RRIRVRPPRLPRPRPRPFNYPRP, the “shrunken log2 fold change” value was -0.975.
With RRIRNRPPRLPRPRPRPNHDPRP the “shrunken log2 fold change” value was -0.602.
For RRIRLRPPRLPRPRPRPRIRPRP, the “shrunken log2 fold change” value was 0.103.
In the case of RRIRFRPPRLPRPRPRPCKKPRP, the “shrunken log2 fold change” value is reported as -0.000348.
For RRIRFRPPRLPRPRPRPVNEPRP, the “shrunken log2 fold change” value was -0.288.
With RRIRMRPPRLPRPRPRPILRPRP the “shrunken log2 fold change” value was 0.00958.
For RRIRWRPPRLPRPRPRPDAWPRP, the “shrunken log2 fold change” value was 0.884.
RRIRSRPPRLPRPRPRPVCQPRP was tested, and the “shrunken log2 fold change” value was -0.569.
In the case of RRIRKRPPRLPRPRPRPFMLPRP, the “shrunken log2 fold change” value is reported as -0.0682.
With RRIRCRPPRLPRPRPRPVFLPRP the “shrunken log2 fold change” value was -0.429.
With RRIRGRPPRLPRPRPRPWDQPRP the “shrunken log2 fold change” value was 0.432.
In the case of RRIRKRPPRLPRPRPRPGTYPRP, the “shrunken log2 fold change” value is reported as -0.0508.
With RRIRYRPPRLPRPRPRPAAHPRP the “shrunken log2 fold change” value was -0.134.
With RRIRMRPPRLPRPRPRPREKPRP the “shrunken log2 fold change” value was 1.19.
RRIRDRPPRLPRPRPRPPFFPRP was tested, and the “shrunken log2 fold change” value was 0.174.
With RRIRPRPPRLPRPRPRPGGMPRP the “shrunken log2 fold change” value was 0.189.
With RRIRTRPPRLPRPRPRPIWVPRP the “shrunken log2 fold change” value was -0.0869.
RRIRTRPPRLPRPRPRPIKDPRP was tested, and the “shrunken log2 fold change” value was -0.104.
For RRIRERPPRLPRPRPRPKTRPRP, the “shrunken log2 fold change” value was -0.0349.
With RRIRERPPRLPRPRPRPNQKPRP the “shrunken log2 fold change” value was -0.108.
For RRIRIRPPRLPRPRPRPQKNPRP, the “shrunken log2 fold change” value was -0.355.
For RRIRARPPRLPRPRPRPIYGPRP, the “shrunken log2 fold change” value was 0.0455.
In the case of RRIRMRPPRLPRPRPRPKPYPRP, the “shrunken log2 fold change” value is reported as 0.314.
For RRIRDRPPRLPRPRPRPTCQPRP, the “shrunken log2 fold change” value was 1.08.
RRIRMRPPRLPRPRPRPQASPRP was tested, and the “shrunken log2 fold change” value was 0.309.
With RRIRHRPPRLPRPRPRPTCEPRP the “shrunken log2 fold change” value was 0.012.
In the case of RRIRTRPPRLPRPRPRPIWIPRP, the “shrunken log2 fold change” value is reported as -0.00704.
With RRIRQRPPRLPRPRPRPEALPRP the “shrunken log2 fold change” value was -0.0434.
For RRIRERPPRLPRPRPRPMLGPRP, the “shrunken log2 fold change” value was 0.00848.
In the case of RRIRKRPPRLPRPRPRPAFHPRP, the “shrunken log2 fold change” value is reported as 0.0641.
In the case of RRIRDRPPRLPRPRPRPTWWPRP, the “shrunken log2 fold change” value is reported as 0.433.
With RRIRNRPPRLPRPRPRPVSRPRP the “shrunken log2 fold change” value was -0.152.
With RRIRPRPPRLPRPRPRPDAFPRP the “shrunken log2 fold change” value was 0.342.
RRIRIRPPRLPRPRPRPRIFPRP was tested, and the “shrunken log2 fold change” value was -1.13.
With RRIRLRPPRLPRPRPRPPCHPRP the “shrunken log2 fold change” value was -0.178.
In the case of RRIRLRPPRLPRPRPRPVCMPRP, the “shrunken log2 fold change” value is reported as -0.246.
For RRIRSRPPRLPRPRPRPCDNPRP, the “shrunken log2 fold change” value was -0.165.
With RRIRNRPPRLPRPRPRPSPGPRP the “shrunken log2 fold change” value was 0.431.
RRIRLRPPRLPRPRPRPTNFPRP was tested, and the “shrunken log2 fold change” value was -0.0757.
With RRIRFRPPRLPRPRPRPQQQPRP the “shrunken log2 fold change” value was 0.0282.
In the case of RRIRVRPPRLPRPRPRPGRAPRP, the “shrunken log2 fold change” value is reported as 0.685.
In the case of RRIRKRPPRLPRPRPRPPQTPRP, the “shrunken log2 fold change” value is reported as 0.559.
RRIRLRPPRLPRPRPRPVWYPRP was tested, and the “shrunken log2 fold change” value was -0.277.
For RRIRPRPPRLPRPRPRPVAQPRP, the “shrunken log2 fold change” value was 0.123.
With RRIRARPPRLPRPRPRPCQLPRP the “shrunken log2 fold change” value was -0.0907.
RRIRSRPPRLPRPRPRPPWNPRP was tested, and the “shrunken log2 fold change” value was 0.0621.
For RRIRSRPPRLPRPRPRPIMDPRP, the “shrunken log2 fold change” value was -0.0619.
With RRIRFRPPRLPRPRPRPAWAPRP the “shrunken log2 fold change” value was 0.953.
In the case of RRIRSRPPRLPRPRPRPLFIPRP, the “shrunken log2 fold change” value is reported as -0.74.
In the case of RRIRLRPPRLPRPRPRPICCPRP, the “shrunken log2 fold change” value is reported as -0.205.
With RRIRQRPPRLPRPRPRPRCWPRP the “shrunken log2 fold change” value was 0.257.
For RRIRWRPPRLPRPRPRPRLHPRP, the “shrunken log2 fold change” value was 0.191.
RRIRARPPRLPRPRPRPSCMPRP was tested, and the “shrunken log2 fold change” value was 0.29.
For RRIRIRPPRLPRPRPRPSICPRP, the “shrunken log2 fold change” value was -0.814.
RRIRSRPPRLPRPRPRPLPAPRP was tested, and the “shrunken log2 fold change” value was 0.494.
RRIRQRPPRLPRPRPRPYISPRP was tested, and the “shrunken log2 fold change” value was -0.716.
RRIRIRPPRLPRPRPRPANYPRP was tested, and the “shrunken log2 fold change” value was -0.33.
RRIRSRPPRLPRPRPRPKNNPRP was tested, and the “shrunken log2 fold change” value was -0.273.
RRIRQRPPRLPRPRPRPGTKPRP was tested, and the “shrunken log2 fold change” value was 0.0136.
For RRIRFRPPRLPRPRPRPEAQPRP, the “shrunken log2 fold change” value was 0.383.
For RRIRERPPRLPRPRPRPGGLPRP, the “shrunken log2 fold change” value was -0.00977.
For RRIRHRPPRLPRPRPRPTDWPRP, the “shrunken log2 fold change” value was 0.223.
With RRIRPRPPRLPRPRPRPMTAPRP the “shrunken log2 fold change” value was 0.162.
With RRIRMRPPRLPRPRPRPKVYPRP the “shrunken log2 fold change” value was 0.0391.
RRIRPRPPRLPRPRPRPDNNPRP was tested, and the “shrunken log2 fold change” value was -0.512.
With RRIRFRPPRLPRPRPRPCTFPRP the “shrunken log2 fold change” value was -0.0554.
For RRIRFRPPRLPRPRPRPQKAPRP, the “shrunken log2 fold change” value was 0.0467.
RRIRLRPPRLPRPRPRPPHSPRP was tested, and the “shrunken log2 fold change” value was 0.0872.
With RRIRYRPPRLPRPRPRPILAPRP the “shrunken log2 fold change” value was -0.353.
RRIRHRPPRLPRPRPRPPAIPRP was tested, and the “shrunken log2 fold change” value was 0.0959.
With RRIRTRPPRLPRPRPRPRAVPRP the “shrunken log2 fold change” value was 0.617.
With RRIRLRPPRLPRPRPRPQTCPRP the “shrunken log2 fold change” value was -0.28.
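Further: peptides expressed intracellularly from a pBAD plasmid library in pooled LB shake-flask culture, induced with 0.3% L-arabinose, DNA abundance read by NGS, three biological replicates, DESeq2 with apeglm shrinkage.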
